We go through three molecules from article PMC4553094 (Thrombosis research, 2015).

The target of experiment [1] is Glycoprotein Ib-IX complex captured from platelet lysates (human (endogenous in platelets)) (UniProt P07359). Description: biomembrane force probe.
For experiment [2], the target named is T1, Human placenta type III collagen (human, UniProt P02461 154-1221, covalently modified with maleimide-PEG3500-NHS for coupling to beads).
T1 sequence (looked up): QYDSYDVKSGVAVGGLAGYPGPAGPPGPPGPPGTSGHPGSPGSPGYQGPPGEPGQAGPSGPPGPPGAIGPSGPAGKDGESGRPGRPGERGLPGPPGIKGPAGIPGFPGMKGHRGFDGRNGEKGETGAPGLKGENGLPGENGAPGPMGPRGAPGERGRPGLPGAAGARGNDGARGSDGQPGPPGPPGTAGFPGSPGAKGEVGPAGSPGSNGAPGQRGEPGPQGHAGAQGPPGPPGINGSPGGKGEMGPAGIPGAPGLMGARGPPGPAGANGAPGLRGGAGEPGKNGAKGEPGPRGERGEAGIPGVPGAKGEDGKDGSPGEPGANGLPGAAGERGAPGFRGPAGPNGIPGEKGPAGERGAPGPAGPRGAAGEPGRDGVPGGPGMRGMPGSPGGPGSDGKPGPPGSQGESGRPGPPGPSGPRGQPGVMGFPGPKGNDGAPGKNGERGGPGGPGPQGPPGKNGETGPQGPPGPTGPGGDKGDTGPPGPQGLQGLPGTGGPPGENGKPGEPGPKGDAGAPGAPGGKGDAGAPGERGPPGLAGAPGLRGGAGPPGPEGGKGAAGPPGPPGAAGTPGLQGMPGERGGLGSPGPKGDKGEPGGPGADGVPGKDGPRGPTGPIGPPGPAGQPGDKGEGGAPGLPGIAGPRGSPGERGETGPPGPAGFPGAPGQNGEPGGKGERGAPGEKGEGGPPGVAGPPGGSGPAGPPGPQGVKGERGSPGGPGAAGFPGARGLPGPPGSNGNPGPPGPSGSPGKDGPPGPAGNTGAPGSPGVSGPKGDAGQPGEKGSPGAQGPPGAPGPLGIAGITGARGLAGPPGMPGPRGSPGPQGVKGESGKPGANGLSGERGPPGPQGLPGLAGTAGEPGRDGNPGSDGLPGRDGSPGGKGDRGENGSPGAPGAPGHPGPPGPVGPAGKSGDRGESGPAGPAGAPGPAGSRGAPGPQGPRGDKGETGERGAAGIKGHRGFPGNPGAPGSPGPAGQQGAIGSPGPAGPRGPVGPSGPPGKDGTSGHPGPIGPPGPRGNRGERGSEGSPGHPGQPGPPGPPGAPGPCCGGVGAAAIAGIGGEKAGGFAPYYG
Description: biomembrane force probe.

“Plasma von Willebrand factor (from UniProt P04275 764-2813) (natural protein)” registered a bond lifetime at the peak force in experiment [1] of 3.1 s.
On the same count and under the same terms, in the case of “Recombinant wild-type monomeric VWF 1238-A1 (residues 1238-1471) (from UniProt P04275 1238-1471) (domain or fragment)” it was 1.5 s.

B1: Recombinant wild-type monomeric VWF A3 domain (residues 1687-1874) (domain or fragment)
chain: SQPLDVILLLDGSSSFPASYFDEMKSFAKAFISKANIGPRLTQVSVLQYGSITTIDVPWNVVPEKAHLLSLVDVMQREGGPSQIGDALGFAVRYLTSEMHGARPGASKAVVILVTDVSVDSVDAAADAARSNRVTVFPIGIGDRYDAAQLRILAGPAGDSNVVKLQRIEDLPTMVTLGNSFLHKLCSG
Consider B1, for which the “affinity to collagen relative to that of A1” value in experiment [2] is 10 times.
